Tests used:
Assay in all cases: cell-based or functional assay
[1] = target: HIV pseudovirus 0260.v5.c36 (envelope glycoprotein) (HIV)
[2] = target: HIV pseudovirus 0260.v5.c36 (envelope glycoprotein) (human immunodeficiency virus (HIV))
[3] = target: HIV pseudovirus BB1012-11.TC21 (envelope glycoprotein) (human immunodeficiency virus (HIV))
[4] = target: HIV pseudovirus CNE52 (envelope glycoprotein) (HIV)
[5] = target: HIV pseudovirus CNE52 (envelope glycoprotein) (human immunodeficiency virus (HIV))
[6] = target: HIV pseudovirus Ce1176_A3 (envelope glycoprotein) (HIV)
[7] = target: HIV pseudovirus Du172.17 (envelope glycoprotein) (HIV)
[8] = target: HIV pseudovirus Du172.17 (envelope glycoprotein) (human immunodeficiency virus (HIV))
[9] = target: HIV pseudovirus RHPA4259.7 (envelope glycoprotein) (HIV)
[10] = target: HIV pseudovirus RHPA4259.7 (envelope glycoprotein) (human immunodeficiency virus (HIV))
[11] = target: HIV pseudovirus SC05.8C11.2344 (envelope glycoprotein) (HIV)
[12] = target: HIV pseudovirus SC422661.8 (envelope glycoprotein) (human immunodeficiency virus (HIV))
[13] = target: envelope glycoprotein of HIV pseudovirus 263-8 (human immunodeficiency virus (HIV))
[14] = target: envelope glycoprotein of HIV pseudovirus 6952.v1.c20 (human immunodeficiency virus (HIV))
[15] = target: envelope glycoprotein of HIV pseudovirus AC10.0.29 (human immunodeficiency virus (HIV))
[16] = target: envelope glycoprotein of HIV pseudovirus Ce1176_A3 (human immunodeficiency virus (HIV))
[17] = target: envelope glycoprotein of HIV pseudovirus SC05.8C11.2344 (human immunodeficiency virus (HIV))
[18] = target: envelope glycoprotein of HIV pseudovirus X1193_c1 (human immunodeficiency virus (HIV))

## Control (antibody)
[1]
  neutralization IC50: 0.051 µg/mL
  neutralization IC80: 0.143 µg/mL
[2]
  neutralization IC50: 0.027 µg/mL
  neutralization IC80: 0.105 µg/mL
[3]
  neutralization IC50: 0.005 µg/mL
  neutralization IC80: 0.021 µg/mL
[4]
  neutralization IC50: 2.92 µg/mL
  neutralization IC80: 17.8 µg/mL
[5]
  neutralization IC50: 0.904 µg/mL
  neutralization IC80: 16.8 µg/mL
[6]
  neutralization IC50: 0.02 µg/mL
  neutralization IC80: 0.076 µg/mL
[7]
  neutralization IC50: 0.051 µg/mL
  neutralization IC80: 0.672 µg/mL
[8]
  neutralization IC50: 0.013 µg/mL
  neutralization IC80: 0.198 µg/mL
[9]
  neutralization IC50: 0.018 µg/mL
  neutralization IC80: 0.047 µg/mL
[10]
  neutralization IC50: 0.011 µg/mL
  neutralization IC80: 0.033 µg/mL
[11]
  neutralization IC50: 0.019 µg/mL
  neutralization IC80: 0.071 µg/mL
[12]
  neutralization IC50: 0.028 µg/mL
  neutralization IC80: 0.126 µg/mL
[13]
  IC50: 1.12 µg/mL
  IC80: 9.37 µg/mL
[14]
  IC50: 0.053 µg/mL
  IC80: 0.373 µg/mL
[15]
  IC50: 0.033 µg/mL
  IC80: 0.117 µg/mL
[16]
  IC50: 0.018 µg/mL
  IC80: 0.049 µg/mL
[17]
  IC50: 0.018 µg/mL
  IC80: 0.084 µg/mL
[18]
  IC50: 0.019 µg/mL
  IC80: 0.065 µg/mL

— patent publication US20210206838A1
